Data reported in US7033991 (dated 2006).

Target: Furin (literature) (UniProt P09958)
Sequence (P09958 108-715): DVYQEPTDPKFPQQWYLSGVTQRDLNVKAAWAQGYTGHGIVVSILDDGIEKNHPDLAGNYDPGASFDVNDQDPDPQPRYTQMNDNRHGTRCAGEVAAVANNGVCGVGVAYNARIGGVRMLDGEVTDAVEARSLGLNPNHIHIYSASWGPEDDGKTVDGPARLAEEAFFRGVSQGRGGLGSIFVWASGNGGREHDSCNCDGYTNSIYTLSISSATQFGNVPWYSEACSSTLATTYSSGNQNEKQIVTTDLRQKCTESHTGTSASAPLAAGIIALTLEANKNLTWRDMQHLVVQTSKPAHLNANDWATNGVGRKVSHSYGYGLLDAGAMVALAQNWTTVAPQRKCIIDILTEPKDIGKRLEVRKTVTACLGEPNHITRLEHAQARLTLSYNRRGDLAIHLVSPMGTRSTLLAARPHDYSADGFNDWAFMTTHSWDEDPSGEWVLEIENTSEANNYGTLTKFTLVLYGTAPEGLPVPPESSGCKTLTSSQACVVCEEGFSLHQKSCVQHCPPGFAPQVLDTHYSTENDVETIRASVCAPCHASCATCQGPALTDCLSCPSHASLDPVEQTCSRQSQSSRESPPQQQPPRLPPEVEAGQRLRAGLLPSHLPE

B1: Proteinase inhibitor 8 (PI8) (protein)
chain: MDDLCEANGTFAISLFKILGEEDNSRNVFFSPMSISSALAMVFMGAKGSTAAQMSQALCLYKDGDIHRGFQSLLSEVNRTGTQYLLRTANRLFGEKTCDFLPDFKEYCQKFYQAELEELSFAEDTEECRKHINDWVAEKTEGKISEVLDAGTVDPLTKLVLVNAIYFKGKWNEQFDRKYTRGMLFKTNEEKKTVQMMFKEAKFKMGYADEVHTQVLELPYVEEELSMVILLPDDNTDLAVVEKALTYEKFKAWTNSEKLTKSKVQVFLPRLKLEESYDLEPFLRRLGMIDAFDEAKADFSGMSTEKNVPLSKVAHKCFVEVNEEGTEAAAATAVVRNSRCSRMEPRFCADHPFLFFIRHHKTNCILFCGRFSSP
  Ki: 0.0538 nM
